This data set has as its system Saccharomyces cerevisiae. The data set is described as follows: protein stability index of tFT-peptide fusion (C-terminal peptide) (PSI (0-1 scale)); higher = more stable (slower turnover). Particulars: temperature: 30 C. The protocol:
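MPS profiling in S. cerevisiae of the yeast C-terminome library: the last 12 aa of each annotated ORF are fused to the C-terminus of a sfGFP-mCherry timer, after a GGGS linker. Cells are FACS-sorted into 8 mCherry/sfGFP bins and deep-sequenced. PSI runs from 0 (unstable) to 1 (stable); wild type and das1Δ backgrounds, two technical replicates each.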

The mark [1] stands for this setting: genetic background: das1 deletion.

± gives the standard deviation of the averaged measurements.

Consider DDDDDDDDDEAD [RAD6 C-terminal 12 aa], for which the protein stability index stood at 0.686 ± 0.015 under setting [1] and 0.667 ± 0.0086 (genetic background: wild type).

With DDDEMDIEFEDV [TFA1 C-terminal 12 aa], the protein stability index runs as follows: under setting [1], 0.71135 ± 0.00066; (genetic background: wild type) 0.739 ± 0.01.

Take DDEAGALIPENC [SOL4 C-terminal 12 aa]: the protein stability index runs as follows: under setting [1], 0.705 ± 0.03; (genetic background: wild type) 0.688 ± 0.0086.

For the sequence DDECTYKMAKFK [YNL303W C-terminal 12 aa], the protein stability index by setting is: under setting [1], 0.68172 ± 0.00037; (genetic background: wild type) 0.664 ± 0.035.

On to DDEEDEEEGQVA [USO1 C-terminal 12 aa], for which the protein stability index under setting [1] was 0.704 ± 0.013 and the protein stability index (genetic background: wild type) turned out to be 0.66 ± 0.027.

In turn, DEEDEEDVKTEV [CAB3 C-terminal 12 aa] yielded a protein stability index under setting [1] of 0.6848 ± 0.0014 and a protein stability index (genetic background: wild type) of 0.664 ± 0.016.

Take DEELFLLSKSLR [SPC98 C-terminal 12 aa]: the protein stability index runs as follows: under setting [1], 0.724 ± 0.013; (genetic background: wild type) 0.6784 ± 0.0026.

As to DEGRNTSSVVNK [MAL31 C-terminal 12 aa], the protein stability index was 0.688 ± 0.0089 under setting [1] and 0.7419 ± 0.0019 (genetic background: wild type).

As for DELTTVLNQLVR [EXO70 C-terminal 12 aa], the protein stability index reads like this: under setting [1], 0.6823 ± 0.0024; (genetic background: wild type) 0.66 ± 0.011.

DEMHYSDEDSSE [RRN11 C-terminal 12 aa] yielded a protein stability index under setting [1] of 0.699 ± 0.073 and a protein stability index (genetic background: wild type) of 0.709 ± 0.028.

Turning to DEYFNEYNNNSN [TFB1 C-terminal 12 aa], the protein stability index runs as follows: under setting [1], 0.7196 ± 0.0065; (genetic background: wild type) 0.675 ± 0.013.

On to DGIRQVDDFQAQ [PRE1 C-terminal 12 aa], for which the protein stability index came to 0.701 ± 0.012 under setting [1] and 0.658 ± 0.0071 (genetic background: wild type).

In the case of DGITLDMPLFEF [AOS1 C-terminal 12 aa], the protein stability index reads like this: under setting [1], 0.7107 ± 0.0043; (genetic background: wild type) 0.731 ± 0.047.

As for DHMQLTGRILVL [YJL132W C-terminal 12 aa], the protein stability index amounted to 0.58733 ± 0.00058 under setting [1] and 0.5716 ± 0.0024 (genetic background: wild type).

With DHQVDFLGNKIL [YLR463C C-terminal 12 aa], the protein stability index under setting [1] was found to be 0.712 ± 0.0082 and the protein stability index (genetic background: wild type) came to 0.715 ± 0.022.

As to DHSNAFESILIF [TRS130 C-terminal 12 aa], the protein stability index runs as follows: under setting [1], 0.6353 ± 0.0054; (genetic background: wild type) 0.684 ± 0.093.

With DIPSEEGTKVIL [BSC3 C-terminal 12 aa], the protein stability index reads like this: under setting [1], 0.701 ± 0.016; (genetic background: wild type) 0.691 ± 0.011.

Consider DKELDSTFDTFG [MIF2 C-terminal 12 aa], for which the protein stability index was 0.701 ± 0.012 under setting [1] and 0.699 ± 0.023 (genetic background: wild type).

As for DKEWTNYATHIG [AYT1 C-terminal 12 aa], the protein stability index runs as follows: under setting [1], 0.696 ± 0.019; (genetic background: wild type) 0.701 ± 0.013.

For DKIQDARNSSTK [MHP1 C-terminal 12 aa], the protein stability index turned out to be 0.677 ± 0.028 under setting [1] and 0.702 ± 0.041 (genetic background: wild type).

With DKYLCMLKTCVF [NUT1 C-terminal 12 aa], the protein stability index turned out to be 0.515 ± 0.019 under setting [1] and 0.517 ± 0.021 (genetic background: wild type).

Turning to DLVRTDQLCPNY [CQD1 C-terminal 12 aa], the protein stability index under setting [1] was 0.681 ± 0.021 and the protein stability index (genetic background: wild type) was 0.682 ± 0.035.

DNDNDDDIDSDN [RUP1 C-terminal 12 aa]: the protein stability index by setting is: under setting [1], 0.704 ± 0.051; (genetic background: wild type) 0.6853 ± 0.0067.

On to DNFRERYFNNFN [TRM11 C-terminal 12 aa], for which the protein stability index by setting is: under setting [1], 0.71368 ± 0.00039; (genetic background: wild type) 0.6816 ± 0.0054.

For DNGELDLSGFNI [MED2 C-terminal 12 aa], the protein stability index reads like this: under setting [1], 0.696 ± 0.013; (genetic background: wild type) 0.734 ± 0.073.

DNQSLPNSEKIK [CST6 C-terminal 12 aa] registered a protein stability index under setting [1] of 0.711 ± 0.017 and a protein stability index (genetic background: wild type) of 0.7044 ± 0.0021.

In the case of DQPFYKKMFGKK [HXT3 C-terminal 12 aa], the protein stability index runs as follows: under setting [1], 0.6926 ± 0.0016; (genetic background: wild type) 0.698 ± 0.042.

Regarding DRIESSSGRISW [SPC110 C-terminal 12 aa], the protein stability index turned out to be 0.702 ± 0.022 under setting [1] and 0.681 ± 0.028 (genetic background: wild type).

Sequence DSEIEMLKGRLQ [EPO1 C-terminal 12 aa] had a protein stability index under setting [1] of 0.6666 ± 0.002 and a protein stability index (genetic background: wild type) of 0.694 ± 0.026.

DSELGCCCCFFN [EDS1 C-terminal 12 aa]: the protein stability index is 0.701 ± 0.03 under setting [1] and 0.696 ± 0.018 (genetic background: wild type).

Consider DSIADEFSSLYF [SPR6 C-terminal 12 aa], for which the protein stability index is 0.7689 ± 0.0042 under setting [1] and 0.721 ± 0.046 (genetic background: wild type).

As for DSPDFKKHLEKK [RSM10 C-terminal 12 aa], the protein stability index by setting is: under setting [1], 0.684 ± 0.025; (genetic background: wild type) 0.721 ± 0.046.

In the case of DSTVLDFVESIS [HER2 C-terminal 12 aa], the protein stability index by setting is: under setting [1], 0.7089 ± 0.005; (genetic background: wild type) 0.694 ± 0.06.

Take DTGNTIKCEFIL [ERG29 C-terminal 12 aa]: the protein stability index reads like this: under setting [1], 0.7022 ± 0.0068; (genetic background: wild type) 0.699 ± 0.017.

With DTTFPQDQHDID [PUT7 C-terminal 12 aa], the protein stability index turned out to be 0.696 ± 0.012 under setting [1] and 0.629 ± 0.059 (genetic background: wild type).

DVETRVQNLEQT [DPB4 C-terminal 12 aa] gave a protein stability index under setting [1] of 0.713 ± 0.032 and a protein stability index (genetic background: wild type) of 0.699 ± 0.013.

Consider DVIDTIMSKQEP [UGA4 C-terminal 12 aa], for which the protein stability index is, setting by setting: under setting [1], 0.698 ± 0.02; (genetic background: wild type) 0.6826 ± 0.0027.

Regarding DWAPGKQLEMNH [JAC1 C-terminal 12 aa], the protein stability index stood at 0.699 ± 0.018 under setting [1] and 0.743 ± 0.042 (genetic background: wild type).

Turning to EAADEADEADEE [RPS9A C-terminal 12 aa], the protein stability index under setting [1] came out at 0.6914 ± 0.0068 and the protein stability index (genetic background: wild type) came to 0.747 ± 0.017.

On to EAEQTKAPKIQI [TMC1 C-terminal 12 aa], for which the protein stability index under setting [1] came out at 0.6728 ± 0.0043 and the protein stability index (genetic background: wild type) came out at 0.701 ± 0.012.

Regarding EAHREQIGGATY [SMT3 C-terminal 12 aa], the protein stability index reads like this: under setting [1], 0.691 ± 0.016; (genetic background: wild type) 0.676 ± 0.011.

Take EAVDRIVSHDEL [SEC20 C-terminal 12 aa]: the protein stability index turned out to be 0.702 ± 0.014 under setting [1] and 0.6744 ± 0.00081 (genetic background: wild type).

With ECRKKNYFKCKH [ATG39 C-terminal 12 aa], the protein stability index by setting is: under setting [1], 0.692 ± 0.0091; (genetic background: wild type) 0.187 ± 0.0042.

On to EDAFLKDVFQQS [KGD1 C-terminal 12 aa], for which the protein stability index was 0.7394 ± 0.0043 under setting [1] and 0.782 ± 0.093 (genetic background: wild type).

As to EDESLNSSRSTT [RCF3 C-terminal 12 aa], the protein stability index under setting [1] turned out to be 0.6802 ± 0.0033 and the protein stability index (genetic background: wild type) is 0.691 ± 0.013.

As for EDGVGDPREEDE [RAD51 C-terminal 12 aa], the protein stability index runs as follows: under setting [1], 0.693 ± 0.023; (genetic background: wild type) 0.6258 ± 0.0013.

For EDITVQVPDTPT [EST1 C-terminal 12 aa], the protein stability index reads like this: under setting [1], 0.708 ± 0.017; (genetic background: wild type) 0.674 ± 0.017.

Consider EDPDFLQHALQS [GRX3 C-terminal 12 aa], for which the protein stability index under setting [1] was determined as 0.707 ± 0.013 and the protein stability index (genetic background: wild type) was 0.704 ± 0.013.

On to EDSSDSSDSDSD [BDF2 C-terminal 12 aa], for which the protein stability index by setting is: under setting [1], 0.669 ± 0.015; (genetic background: wild type) 0.675 ± 0.068.

As to EEDIFYRNQVVF [YKR075C C-terminal 12 aa], the protein stability index came out at 0.738 ± 0.0081 under setting [1] and 0.777 ± 0.059 (genetic background: wild type).

The values above are taken from the supplement of paper PMC10724198.
